Data on 16 molecules can be found in patent US20260241049A1, “Radiopharmaceutical Compositions Targeting Glypican-3 and Uses Thereof” (RayzeBio, Inc., priority 2023, published 2026).

B1: Lu-C-62 (peptide)
peptide: Ac-[NMeK](DOTA‑Lu)[NMeI]D[NMeQ][Phe(4-COOH)][TMe″]IY[NMeAla(isoquinolin-7-yl)]G[3Pal(6-Ph)][NMeC]-NH2
modifications: bridge N-12; not fully specified (bridges); also: DOTA-Lu: cold Lu-175 complex
B2: Macrocyclic peptide of Example 2-57 (SEQ ID No. 1) (peptide)
peptide: {CH2CO}-[NMeK][NMeI]D[NMeQ][Phe(4-COOH)]IIY[NMeAla(isoquinolin-7-yl)]G[3Pal(6-Ph)][NMeC]-NH2
modifications: thioether N-12
SMILES: CC[C@H](C)[C@@H]1NC(=O)[C@H](Cc2ccc(C(=O)O)cc2)NC(=O)[C@H](CCC(N)=O)N(C)C(=O)[C@H](CC(=O)O)NC(=O)[C@H]([C@@H](C)CC)N(C)C(=O)[C@H](CCCCN)N(C)C(=O)CSC[C@@H](C(N)=O)N(C)C(=O)[C@H](Cc2ccc(-c3ccccc3)nc2)NC(=O)CNC(=O)[C@H](Cc2ccc3ccncc3c2)N(C)C(=O)[C@H](Cc2ccc(O)cc2)NC(=O)[C@H]([C@@H](C)CC)NC1=O
B3: Macrocyclic peptide of Example 10-2 (SEQ ID No. 41) (peptide)
peptide: {CH2CO}-[NMeK](dF)[NMeI]D[NMeQ][Phe(4-COOH)]II[F4aao(4)][NMeAla(isoquinolin-7-yl)]G[3Pal(6-Ph)][NMeC]-NH2
modifications: thioether N-12
SMILES: CC[C@H](C)[C@@H]1NC(=O)[C@H](Cc2ccc(C(=O)O)cc2)NC(=O)[C@H](CCC(N)=O)N(C)C(=O)[C@H](CC(=O)O)NC(=O)[C@H]([C@@H](C)CC)N(C)C(=O)[C@H](CCCCNC(=O)[C@H](N)Cc2ccccc2)N(C)C(=O)CSC[C@@H](C(N)=O)N(C)C(=O)[C@H](Cc2ccc(-c3ccccc3)nc2)NC(=O)CNC(=O)[C@H](Cc2ccc3ccncc3c2)N(C)C(=O)[C@H](Cc2ccc(OCC(=O)O)cc2)NC(=O)[C@H]([C@@H](C)CC)NC1=O
B4: Lu-C-72 (peptide)
peptide: Ac-[NMeK](DOTA‑Lu)[MeHseMe(5)]D[NMeQ][Phe(4-COOH)]IIY[NMeAla(isoquinolin-7-yl)]G[3Pal(6-Ph)][NMeC]-NH2
modifications: bridge N-12; not fully specified (bridges); also: cold Lu-175 chelated by DOTA
B5: Macrocyclic peptide of Example 2-27 (SEQ ID No. 35) (peptide)
peptide: KQDQFTIFFGXC
modifications: MeK-MeQ-D-MeQ-F4COO-TMe-I-F4aao-MeNal27N-G-3Py6Ph-MeC-NH2; thioether ring from N-terminal acetyl to MeC12
B6: Macrocyclic peptide of Example B9 (SEQ ID No. 33) (peptide)
peptide: {CH2CO}-[NMeK](dE)[NMeI]D[NMeQ][Phe(4-COOH)]II[F4aao][NMeAla(isoquinolin-7-yl)]G[3Pal(6-Ph)][NMeC]-NH2
modifications: thioether N-12
B7: Macrocyclic peptide of Example 2-59 (SEQ ID No. 63) (peptide)
peptide: {CH2CO}-[NMeK][MeHseMe″]D[NMeQ][Phe(4-COOH)][TMe]I[F4aao][NMeAla(isoquinolin-7-yl)]G[3Pal(6-Ph)][NMeC]-NH2
modifications: thioether N-12
SMILES: CC[C@H](C)[C@@H]1NC(=O)[C@H]([C@@H](C)OC)NC(=O)[C@H](Cc2ccc(C(=O)O)cc2)NC(=O)[C@H](CCC(N)=O)N(C)C(=O)[C@H](CC(=O)O)NC(=O)[C@H](CCOC)N(C)C(=O)[C@H](CCCCN)N(C)C(=O)CSC[C@@H](C(N)=O)N(C)C(=O)[C@H](Cc2ccc(-c3ccccc3)nc2)NC(=O)CNC(=O)[C@H](Cc2ccc3ccncc3c2)N(C)C(=O)[C@H](Cc2ccc(OCC(=O)O)cc2)NC1=O
B8: Macrocyclic peptide of Example 2-4 (SEQ ID No. 7) (peptide)
peptide: {CH2CO}-[NMeK](Ac)[NMeI]D[NMeQ][Phe(4-COOH)]IIY[NMeAla(isoquinolin-7-yl)]G[3Pal(6-Ph)][NMeC]-NH2
modifications: thioether N-12
SMILES: CC[C@H](C)[C@@H]1NC(=O)[C@H](Cc2ccc(C(=O)O)cc2)NC(=O)[C@H](CCC(N)=O)N(C)C(=O)[C@H](CC(=O)O)NC(=O)[C@H]([C@@H](C)CC)N(C)C(=O)[C@H](CCCCNC(C)=O)N(C)C(=O)CSC[C@@H](C(N)=O)N(C)C(=O)[C@H](Cc2ccc(-c3ccccc3)nc2)NC(=O)CNC(=O)[C@H](Cc2ccc3ccncc3c2)N(C)C(=O)[C@H](Cc2ccc(O)cc2)NC(=O)[C@H]([C@@H](C)CC)NC1=O
B9: Macrocyclic peptide of Example B1 (SEQ ID No. 45) (peptide)
peptide: {CH2CO}-[NMeK][MeHseMe″]D[NMeQ][Phe(4-COOH)][TMe]IY[NMeAla(isoquinolin-7-yl)]G[3Pal(6-Ph)][NMeC]-NH2
modifications: thioether N-12
SMILES: CC[C@H](C)[C@@H]1NC(=O)[C@H]([C@@H](C)OC)NC(=O)[C@H](Cc2ccc(C(=O)O)cc2)NC(=O)[C@H](CCC(N)=O)N(C)C(=O)[C@H](CC(=O)O)NC(=O)[C@H](CCOC)N(C)C(=O)[C@H](CCCCN)N(C)C(=O)CSC[C@@H](C(N)=O)N(C)C(=O)[C@H](Cc2ccc(-c3ccccc3)nc2)NC(=O)CNC(=O)[C@H](Cc2ccc3ccncc3c2)N(C)C(=O)[C@H](Cc2ccc(O)cc2)NC1=O
notes: also called macrocyclic peptide 2b
B10: Macrocyclic peptide of Example B8 (SEQ ID No. 42) (peptide)
peptide: {CH2CO}-[NMeK](d(tBuAla))[NMeI]D[NMeQ][Phe(4-COOH)]II[F4aao][NMeAla(isoquinolin-7-yl)]G[3Pal(6-Ph)][NMeC]-NH2
modifications: thioether N-12
SMILES: CC[C@H](C)[C@@H]1NC(=O)[C@H](Cc2ccc(C(=O)O)cc2)NC(=O)[C@H](CCC(N)=O)N(C)C(=O)[C@H](CC(=O)O)NC(=O)[C@H]([C@@H](C)CC)N(C)C(=O)[C@H](CCCCNC(=O)[C@H](N)CC(C)(C)C)N(C)C(=O)CSC[C@@H](C(N)=O)N(C)C(=O)[C@H](Cc2ccc(-c3ccccc3)nc2)NC(=O)CNC(=O)[C@H](Cc2ccc3ccncc3c2)N(C)C(=O)[C@H](Cc2ccc(OCC(=O)O)cc2)NC(=O)[C@H]([C@@H](C)CC)NC1=O
B11: Mod5 (peptide)
peptide: {CH2CO}-[NMeK](SulfoCy5)[MeHseMe]D[NMeQ][Phe(4-COOH)]II[F4aao][NMeAla(isoquinolin-7-yl)]G[3Pal(6-Ph)][NMeC]-NH2
modifications: thioether N-12
B12: Macrocyclic peptide of Example 2-24 (SEQ ID No. 58) (peptide)
peptide: {CH2CO}-[MeKCOpipzaa″][MeHseMe]D[NMeQ][Phe(4-COOH)][Thr(Me)(3)]IY[NMeAla(isoquinolin-7-yl)]G[3Pal(6-Ph)][NMeC]-NH2
modifications: thioether N-12
SMILES: CC[C@H](C)[C@@H]1NC(=O)[C@H]([C@@H](C)OC)NC(=O)[C@H](Cc2ccc(C(=O)O)cc2)NC(=O)[C@H](CCC(N)=O)N(C)C(=O)[C@H](CC(=O)O)NC(=O)[C@H](CCOC)N(C)C(=O)[C@H](CCCCNC(=O)N2CCN(CC(=O)O)CC2)N(C)C(=O)CSC[C@@H](C(N)=O)N(C)C(=O)[C@H](Cc2ccc(-c3ccccc3)nc2)NC(=O)CNC(=O)[C@H](Cc2ccc3ccncc3c2)N(C)C(=O)[C@H](Cc2ccc(O)cc2)NC1=O
B13: Macrocyclic peptide of Example 2-60 (SEQ ID No. 62) (peptide)
peptide: {CH2CO}-[NMeK][NMeI]D[NMeQ][Phe(4-COOH)][TMe]IY[NMeAla(isoquinolin-7-yl)]G[3Pal(6-Ph)][NMeC]-NH2
modifications: thioether N-12
SMILES: CC[C@H](C)[C@@H]1NC(=O)[C@H]([C@@H](C)OC)NC(=O)[C@H](Cc2ccc(C(=O)O)cc2)NC(=O)[C@H](CCC(N)=O)N(C)C(=O)[C@H](CC(=O)O)NC(=O)[C@H]([C@@H](C)CC)N(C)C(=O)[C@H](CCCCN)N(C)C(=O)CSC[C@@H](C(N)=O)N(C)C(=O)[C@H](Cc2ccc(-c3ccccc3)nc2)NC(=O)CNC(=O)[C@H](Cc2ccc3ccncc3c2)N(C)C(=O)[C@H](Cc2ccc(O)cc2)NC1=O
B14: Lu-C-64 (peptide)
peptide: Ac-[NMeK](DOTA‑Lu)[NMeI]D[NMeQ][Phe(4-COOH)]II[F4aao(4)][NMeAla(isoquinolin-7-yl)]G[3Pal(6-Ph)][NMeC]-NH2
modifications: bridge N-12; not fully specified (bridges); also: DOTA-Lu: cold Lu-175 complex
B15: Mod6 (peptide)
peptide: {CH2CO}-[NMeK](SulfoCy5)[NMeI]D[NMeQ][Phe(4-COOH)][TMe]IY[NMeAla(isoquinolin-7-yl)]G[3Pal(6-Ph)][NMeC]-NH2
modifications: thioether N-12
B16: Macrocyclic peptide of Example 10-1 (SEQ ID No. 34) (peptide)
peptide: {CH2CO}-[NMeK](His)[NMeI]D[NMeQ][Phe(4-COOH)]II[F4aao(4)][NMeAla(isoquinolin-7-yl)]G[3Pal(6-Ph)][NMeC]-NH2
modifications: thioether N-12
SMILES: CC[C@H](C)[C@@H]1NC(=O)[C@H](Cc2ccc(C(=O)O)cc2)NC(=O)[C@H](CCC(N)=O)N(C)C(=O)[C@H](CC(=O)O)NC(=O)[C@H]([C@@H](C)CC)N(C)C(=O)[C@H](CCCCNC(=O)[C@@H](N)Cc2c[nH]cn2)N(C)C(=O)CSC[C@@H](C(N)=O)N(C)C(=O)[C@H](Cc2ccc(-c3ccccc3)nc2)NC(=O)CNC(=O)[C@H](Cc2ccc3ccncc3c2)N(C)C(=O)[C@H](Cc2ccc(OCC(=O)O)cc2)NC(=O)[C@H]([C@@H](C)CC)NC1=O

Starred links: 1 amine or outer side, 2 acyl side, 3 side chain; linkers in the order of their positions; H or OH if unused. Positions of bridges follow the written chain, without caps; N, C: chain ends. Non-standard residues stand in square brackets, D forms with d. Primed or numbered codes have the meaning given here. *: point of attachment. MeKCOpipzaa″ = (2S)-6-{[4-(carboxymethyl)piperazine-1-carbonyl]amino}-2-(methylamino)hexanoic acid, CN([C@@H](CCCCNC(=O)N1CCN(CC(=O)[*:3])CC1)C(=O)[*:2])[*:1]; DOTA‑Lu = DOTA-lutetium(175) amide on the side-chain amine, O=C([O-])CN1CCN(CC(=O)[O-])CCN(CC(=O)*)CCN(CC(=O)[O-])CC1.[175Lu+3]; MeHseMe″ = (2S)-4-methoxy-2-(methylamino)butanoic acid (N-methyl-O-methyl-L-homoserine), COCC[C@@H](C(=O)[*:2])N(C)[*:1]; F4aao = 4-(carboxymethoxy)-L-phenylalanine, O=C([C@H](Cc1ccc(OCC(=O)[*:3])cc1)N[*:1])[*:2]; F4aao(4) = 4-(carboxymethoxy)phenylalanine, O=C([C@H](Cc1ccc(OCC(=O)[*:3])cc1)N[*:1])[*:2]; MeHseMe(5) = N-methyl-O-methyl-homoserine, COCC[C@@H](C(=O)[*:2])N(C)[*:1]; MeHseMe = N-methyl-O-methyl-L-homoserine, COCC[C@@H](C(=O)[*:2])N(C)[*:1]; Thr(Me)(3) = TMe, O-methyl-L-threonine, CO[C@H](C)[C@H](N[*:1])C(=O)[*:2]; SulfoCy5 = sulfo-Cyanine5 hexanoyl dye on the side-chain amine; TMe = O-methyl-L-threonine, CO[C@H](C)[C@H](N[*:1])C(=O)[*:2]; TMe″ = O-methyl-threonine, CO[C@H](C)[C@H](N[*:1])C(=O)[*:2]; NMeAla(isoquinolin-7-yl) = CN[C@@H](Cc1ccc2ccncc2c1)C(=O)O; 3Pal(6-Ph) = N[C@@H](Cc1ccc(-c2ccccc2)nc1)C(=O)O; Phe(4-COOH) = N[C@@H](Cc1ccc(C(=O)O)cc1)C(=O)O; d(tBuAla) = CC(C)(C)C[C@@H](N)C(=O)O; NMeI = CC[C@H](C)[C@H](NC)C(=O)O; NMeQ = CN[C@@H](CCC(N)=O)C(=O)O; NMeK = CN[C@@H](CCCCN)C(=O)O; NMeC = CN[C@@H](CS)C(=O)O

The assay has as its target T1, Human Glypican3-Fc (ACRO Biosystems, GP3-H5258) (human, UniProt P51654 25-559).
T1 construct: Bought fusion protein, captured in Methods B-2, B-3 and B-4; Catalogue number is printed only in Method B-2; not shown: Fc part of the bought fusion
As to the kind of experiment: SPR (Biacore T200), Method B-3: Glypican3-Fc captured on Protein A chip, peptide as analyte. The procedure:
A Protein A sensor chip (Cytiva) was inserted into a Biacore T200 (Cytiva), priming was performed three times with a running buffer: HBS-P+, pH 7.4 (Cytiva), and equilibration was carried out at a flow rate of 30 μL/min. Glypican3-Fc was allowed to react for 60 seconds at a flow rate of 10 μL/min. After capturing human Glypican3-Fe, a peptide solution prepared to 10 mM in DMSO solution was diluted with a running buffer to a final concentration of 10 μM. […] Using the above samples, peptide kinetics for Glypican3 was obtained by SPR measurement. Kinetics evaluation of Glypican3 was performed by SPR measurements at a flow rate of 10 LL/min, setting the association time to 120 seconds and the disassociation time to 600 seconds.
The obtained data by Method B-1, Method B-2, Method B-3 and Method B-4 were analyzed by follow. Single Cycle Kinetics was used as the kinetics evaluation model, and curve fitting was performed using Biacore T200 Evaluation Software Version 3.0 (Cytiva).
(SPR reads the build-up and loss of mass on a sensor chip optically.)
In the case of B1, the Kd (as a rule, the concentration at which binding is half-saturated) turned out to be 150 pM.

B2: the Kd was determined as 170 pM.

As for B3, binding was put at a Kd of 540 pM. For the molecule B4, the Kd came out at 360 pM. To B5 belongs 1100 pM.

Consider B6, for which the Kd came to 520 pM. Then B7, with 1550 pM; and B8, with 300 pM; and B9, with 200 pM. Take B10: the affinity, expressed as Kd, was 570 pM.

B11 had a Kd of 3600 pM. The molecule B12 displayed a Kd of 500 pM. For the molecule B13, the Kd stood at 230 pM. Then B14, with 530 pM.

Consider B15, for which the Kd was determined as 240 pM. To B16 belongs 510 pM.
